Reference: the supplement of paper PMC10567573

B1: RSPH3 (parent)
chain: LELQRQREARKRALARKQAQEQLR

Variants of: B1
Assay: protein stability index of a GFP-peptide fusion (GPS, HEK-293T) (PSI 1-6); higher = more stable
Settings: c terminus: a fixed tail appended
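Further: lentivirally expressed fusions sorted by FACS into six bins by GFP to DsRed ratio, PSI derived from sequencing read proportions per bin multiplied by bin number.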

| Variant | protein stability index |
| --- | --- |
| LELQRQREARKRANARKQAQEQLR [L14N] | 4.04 |
| LELQRQREARKRAAARKQAQEQLR [L14A] | 4.46 |
| LELQRQREARKRAFARKQAQEQLR [L14F] | 3.74 |
| LELQRQREARKRAGARKQAQEQLR [L14G] | 4.75 |
| LELQRQREARKRAVARKQAQEQLR [L14V] | 4.13 |
| LELQRQREARKRALARKQAWEQLR [Q20W] | 2.04 |
| LELQRQREARKRALARKQADEQLR [Q20D] | 4.74 |
| LELQRQREARKRALARKQATEQLR [Q20T] | 3.79 |
| LELQRQREARKRALARKQAFEQLR [Q20F] | 2.02 |
| LELQRQREARKRALARKQALEQLR [Q20L] | 2.8 |
| LELQRQIEARKRALARKQAQEQLR [R7I] | 3.25 |
| LELQRQAEARKRALARKQAQEQLR [R7A] | 3.61 |
| LELQRQKEARKRALARKQAQEQLR [R7K] | 3.56 |
| LELQRQYEARKRALARKQAQEQLR [R7Y] | 3.85 |
| LELQRQPEARKRALARKQAQEQLR [R7P] | 3.71 |
| LELQRQNEARKRALARKQAQEQLR [R7N] | 4.08 |
| LELQRQMEARKRALARKQAQEQLR [R7M] | 3.52 |
| LELQRQFEARKRALARKQAQEQLR [R7F] | 4.1 |
| LELQRQHEARKRALARKQAQEQLR [R7H] | 4.29 |
| LELQRQREARKRALARKKAQEQLR [Q18K] | 3.39 |
| LELQRQREARKRALARKLAQEQLR [Q18L] | 3.13 |
| LELQRQREARKRALARKNAQEQLR [Q18N] | 3.68 |
| LELQRQREARKRALARKTAQEQLR [Q18T] | 4.05 |
| LELQRQREARKRALARKPAQEQLR [Q18P] | 4.32 |

| Variant | protein stability index |
| --- | --- |
| LELQRQREARKRALARKHAQEQLR [Q18H] | 3.11 |
| LELQRQREARKRALARKWAQEQLR [Q18W] | 2.5 |
| LELQRQREARKRHLARKQAQEQLR [A13H] | 4.06 |
| LELQRQREARKRNLARKQAQEQLR [A13N] | 4.25 |
| LELQRQREARKRGLARKQAQEQLR [A13G] | 3.33 |
| LELQRQREARKRCLARKQAQEQLR [A13C] | 3.24 |
| LELQRQREARKRDLARKQAQEQLR [A13D] | 4.07 |
| LELQRQREARKRVLARKQAQEQLR [A13V] | 3.78 |
| LELQRQREARKRRLARKQAQEQLR [A13R] | 4.18 |
| LELQRQREARKRALARKQAQEWLR [Q22W] | 2.8 |
| LELQRQREARKRALARKQAQESLR [Q22S] | 3.5 |
| LELQRQREARKRALARKQAQEELR [Q22E] | 3.8 |
| LELQRQREARKRALARKQAQEYLR [Q22Y] | 3.01 |
| LELQRQREARKRALARKQAQEVLR [Q22V] | 3.37 |
| LELQRQREARKRALARKQAQEILR [Q22I] | 2.65 |
| LELQRQREARKKALARKQAQEQLR [R12K] | 3.97 |
| LELQRQREARKVALARKQAQEQLR [R12V] | 3.81 |
| LELQRQREARKYALARKQAQEQLR [R12Y] | 3.77 |
| LELQRQREARKDALARKQAQEQLR [R12D] | 4.15 |
| LELQRQREARKPALARKQAQEQLR [R12P] | 4.25 |
| LELQRQREARKIALARKQAQEQLR [R12I] | 4.21 |
| LELQRQREARKHALARKQAQEQLR [R12H] | 3.71 |
| LELQRQREARKFALARKQAQEQLR [R12F] | 2.82 |
| LELQRQREARKGALARKQAQEQLR [R12G] | 4.23 |

| Variant | protein stability index |
| --- | --- |
| LELQRQREARKRALARIQAQEQLR [K17I] | 3.77 |
| LELQRQREARKRALARMQAQEQLR [K17M] | 4.14 |
| LELQRQREARKRALARVQAQEQLR [K17V] | 4.31 |
| LELQRQREARKRALARDQAQEQLR [K17D] | 3.92 |
| LELQRQREARKRALARPQAQEQLR [K17P] | 4.48 |
| LELQRQREARKRALARCQAQEQLR [K17C] | 3.77 |
| LELQRQREARKRALARYQAQEQLR [K17Y] | 3.71 |
| LELQRQREARKRALARGQAQEQLR [K17G] | 4.66 |
| LELQRQREARKRALARHQAQEQLR [K17H] | 4.17 |
| LELQRQREAAKRALARKQAQEQLR [R10A] | 4.57 |
| LELQRQREATKRALARKQAQEQLR [R10T] | 3.92 |
| LELQRQREANKRALARKQAQEQLR [R10N] | 4.28 |
| LELQRQREAVKRALARKQAQEQLR [R10V] | 3.38 |
| LELQRQREAHKRALARKQAQEQLR [R10H] | 3.79 |
| LELQRQREASKRALARKQAQEQLR [R10S] | 4.2 |
| LELQRQREAYKRALARKQAQEQLR [R10Y] | 3.17 |
| LELQRQREAPKRALARKQAQEQLR [R10P] | 4.3 |
| LELQRQREAGKRALARKQAQEQLR [R10G] | 4.26 |
| LELQRQREAIKRALARKQAQEQLR [R10I] | 3.22 |
| LELQRQRRARKRALARKQAQEQLR [E8R] | 4.26 |
| LELQRQRVARKRALARKQAQEQLR [E8V] | 3.39 |
| LELQRQRSARKRALARKQAQEQLR [E8S] | 3.62 |
| LELQRQRMARKRALARKQAQEQLR [E8M] | 3.43 |
| LELQRQRIARKRALARKQAQEQLR [E8I] | 2.38 |

| Variant | protein stability index |
| --- | --- |
| LELQRQRHARKRALARKQAQEQLR [E8H] | 3.83 |
| LELQRQRNARKRALARKQAQEQLR [E8N] | 3.44 |
| LELQRQRFARKRALARKQAQEQLR [E8F] | 3.24 |
| LELQRQREARKRALARKQKQEQLR [A19K] | 4.08 |
| LELQRQREARKRALARKQLQEQLR [A19L] | 3.09 |
| LELQRQREARKRALARKQQQEQLR [A19Q] | 4.54 |
| LELQRQREARKRALARKQEQEQLR [A19E] | 3.28 |
| LELQRQREARKRALARKQIQEQLR [A19I] | 3.55 |
| LELQRQREARKRALARKQMQEQLR [A19M] | 3.37 |
| CELQRQREARKRALARKQAQEQLR [L1C] | 4.05 |
| SELQRQREARKRALARKQAQEQLR [L1S] | 3.85 |
| DELQRQREARKRALARKQAQEQLR [L1D] | 4.08 |
| RELQRQREARKRALARKQAQEQLR [L1R] | 4.4 |
| WELQRQREARKRALARKQAQEQLR [L1W] | 2.71 |
| PELQRQREARKRALARKQAQEQLR [L1P] | 4.45 |
| QELQRQREARKRALARKQAQEQLR [L1Q] | 3.82 |
| LELQEQREARKRALARKQAQEQLR [R5E] | 3.68 |
| LELQMQREARKRALARKQAQEQLR [R5M] | 4.03 |
| LELQLQREARKRALARKQAQEQLR [R5L] | 3.25 |
| LELQYQREARKRALARKQAQEQLR [R5Y] | 4.19 |
| LELQSQREARKRALARKQAQEQLR [R5S] | 4.16 |
| LELQNQREARKRALARKQAQEQLR [R5N] | 3.72 |
